Results taken from patent publication US20230080534A1 (SHANGHAI BIOTROY BIOTECHNIQUE, published 2023).
No end group written: not given here.

Columns and labels:
[1] = target: T1, human SEMG2 full-length protein (human, UniProt Q02383 24-582, limits assumed); experiment: ELISA on SEMG2; the EC50 table prints no unit, the axis is log (antibody concentration, nM)
T1 construct: also called SEMG2 protein; semenogelin 2
T1 sequence: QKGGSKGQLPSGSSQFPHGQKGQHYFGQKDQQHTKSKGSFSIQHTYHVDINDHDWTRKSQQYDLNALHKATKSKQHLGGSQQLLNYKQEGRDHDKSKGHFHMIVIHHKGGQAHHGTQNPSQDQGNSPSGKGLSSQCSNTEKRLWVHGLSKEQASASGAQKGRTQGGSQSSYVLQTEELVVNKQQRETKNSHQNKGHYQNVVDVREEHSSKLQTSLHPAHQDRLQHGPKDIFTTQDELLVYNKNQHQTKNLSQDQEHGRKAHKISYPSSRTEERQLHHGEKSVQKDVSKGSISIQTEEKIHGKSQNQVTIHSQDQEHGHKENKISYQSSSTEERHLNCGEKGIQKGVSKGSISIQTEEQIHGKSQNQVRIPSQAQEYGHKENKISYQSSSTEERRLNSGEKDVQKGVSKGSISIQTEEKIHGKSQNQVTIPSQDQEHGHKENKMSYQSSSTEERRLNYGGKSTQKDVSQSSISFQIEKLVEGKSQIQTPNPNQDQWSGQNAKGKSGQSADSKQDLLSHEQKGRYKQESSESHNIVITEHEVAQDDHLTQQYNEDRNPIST

[2] = target: T2, BSA-conjugated human SEMG2 (497-509) polypeptide (human, also: coupled to BSA, site not given here); experiment: ELISA on BSA-S2 (497-509); curve without upper plateau; the EC50 table prints no unit, the axis is log (antibody concentration, nM)
T2 peptide: QIEKLVEGKSQIQ

[3] = target: T1, human SEMG2 full-length protein; experiment: biolayer interferometry (ForteBio Blitz or Gator)
Experimental: The equilibrium dissociation constant (KD) of the antibody of the present invention binding to human SEMG2 was determined by biolayer interferometry (ForteBio Bltz or Gator instrument). […] 100 μl of SD buffer, antibody and SEMG2 were added to a 96-well black polystyrene half area microplate, respectively. Select the sensor location based on the sample location layout. KD values were analyzed using molecular interaction analysis software. In the experiments of the assays, the affinity constants of murine monoclonal antibodies and human antibodies H88-67, H88-93 and H88-96 are shown in Table 8, and the affinity and dissociation curves of SEMG2 and corresponding proteins are shown in FIG. 25.

[4] = target: T1, human SEMG2 full-length protein; experiment: ELISA on SEMG2; the EC50 table prints no unit, the axis is log (antibody concentration, nM); remark: listed apart in the source
QIEKAVEGKSQIQ = target: T3, QIEKAVEGKSQIQ (not fully specified); experiment: ELISA, immobilized peptide QIEKAVEGKSQIQ
T3 construct: alanine at this position
T3 peptide: QIEKAVEGKSQIQ
Text: (§1) FIG. 20 depicts the value detected by ELISA, i.e., OD₄₅₀ absorbance. […] This experiment is used to determine the precise amino acid epitopes that different monoclonal antibodies bind to, and the relative importance of each amino acid to the binding antibody.

QIEKLVEGKAQIQ = target: T4, QIEKLVEGKAQIQ (not fully specified); experiment: ELISA, immobilized peptide QIEKLVEGKAQIQ
T4 construct: alanine at this position
T4 peptide: QIEKLVEGKAQIQ
Text: as §1

QIAKLVEGKSQIQ = target: T5, QIAKLVEGKSQIQ (not fully specified); experiment: ELISA, immobilized peptide QIAKLVEGKSQIQ
T5 construct: member of the group m41; the text speaks of glycine substitution, the sheet prints alanine
T5 peptide: QIAKLVEGKSQIQ

QIEKLVEGKSQAQ = target: T6, QIEKLVEGKSQAQ (not fully specified); experiment: ELISA, immobilized peptide QIEKLVEGKSQAQ
T6 construct: member of the group m41; the text speaks of glycine substitution, the sheet prints alanine
T6 peptide: QIEKLVEGKSQAQ
Text: as §1

[5] = target: T7, SEMG2(497-509) polypeptide QIEKLVEGKSQIQ (human); experiment: ELISA, immobilized antigen SEMG2 (497-509)
T7 peptide: QIEKLVEGKSQIQ
Text: (§2) To clearly distinguish the binding epitopes of blocking antibodies (i.e., antibodies that can inhibit the binding between SEMG2 and CD27) and non-blocking antibodies, a corresponding ELISA analysis method was established. […] Anti-mouse or anti-rabbit secondary antibodies were then used to detect the corresponding bound antibodies.

QIEKLAEGKSQIQ = target: T8, QIEKLAEGKSQIQ (not fully specified); experiment: ELISA, immobilized peptide QIEKLAEGKSQIQ
T8 construct: member of the group m41; the text speaks of glycine substitution, the sheet prints alanine
T8 peptide: QIEKLAEGKSQIQ
Text: as §1

SEMG2(354-403) fragment = target: T9, SEMG2(354-403) fragment (human); experiment: ELISA, immobilized antigen SEMG2 (354-403)
T9 peptide: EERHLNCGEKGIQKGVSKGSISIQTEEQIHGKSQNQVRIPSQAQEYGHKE
Text: as §2

QIEKLVEGKSQIA = target: T10, QIEKLVEGKSQIA (not fully specified); experiment: ELISA, immobilized peptide QIEKLVEGKSQIA
T10 construct: alanine at this position
T10 peptide: QIEKLVEGKSQIA
Text: as §1

QIEALVEGKSQIQ = target: T11, QIEALVEGKSQIQ (not fully specified); experiment: ELISA, immobilized peptide QIEALVEGKSQIQ
T11 construct: member of the group m41; the text speaks of glycine substitution, the sheet prints alanine
T11 peptide: QIEALVEGKSQIQ
Text: as §1

[6] = target: T1, human SEMG2 full-length protein; experiment: ELISA, plate coated with SEMG2 protein, anti-mouse secondary antibody; the EC50 table prints no unit, the axis is log (antibody concentration, nM)
QIEKLVEGASQIQ = target: T12, QIEKLVEGASQIQ (not fully specified); experiment: ELISA, immobilized peptide QIEKLVEGASQIQ
T12 construct: member of the group m41; the text speaks of glycine substitution, the sheet prints alanine
T12 peptide: QIEKLVEGASQIQ
Text: as §1

SEMG2(442-453) fragment = target: T13, SEMG2(442-453) fragment (human); experiment: ELISA, immobilized antigen SEMG2 (442-453)
T13 peptide: IHGKSQNQVTIP
Text: as §2

[7] = target: T1, human SEMG2 full-length protein; experiment: ELISA, immobilized antigen SEMG2 (1-582)
Text: as §2

AIEKLVEGKSQIQ = target: T14, AIEKLVEGKSQIQ (not fully specified); experiment: ELISA, immobilized peptide AIEKLVEGKSQIQ
T14 construct: member of the group m41; the text speaks of glycine substitution, the sheet prints alanine
T14 peptide: AIEKLVEGKSQIQ
Text: as §1

QIEKLVEGKSAIQ = target: T15, QIEKLVEGKSAIQ (not fully specified); experiment: ELISA, immobilized peptide QIEKLVEGKSAIQ
T15 construct: alanine at this position
T15 peptide: QIEKLVEGKSAIQ
Text: as §1

QIEKLVAGKSQIQ = target: T16, QIEKLVAGKSQIQ (not fully specified); experiment: ELISA, immobilized peptide QIEKLVAGKSQIQ
T16 construct: member of the group m41; the text speaks of glycine substitution, the sheet prints alanine
T16 peptide: QIEKLVAGKSQIQ
Text: as §1
To further precisely define the exact epitopes (specific to the level of single amino acid) to which blocking antibodies MM02, MM05, MM07, MM08, MM13, MM14 bind, corresponding ELISA analysis method was established. […] Anti-mouse or anti-rabbit secondary antibodies were then used to detect the corresponding bound antibodies.

QAEKLVEGKSQIQ = target: T17, QAEKLVEGKSQIQ (not fully specified); experiment: ELISA, immobilized peptide QAEKLVEGKSQIQ
T17 construct: member of the group m41; the text speaks of glycine substitution, the sheet prints alanine
T17 peptide: QAEKLVEGKSQIQ
Text: as §1

[8] = target: T2, BSA-conjugated human SEMG2 (497-509) …; experiment: ELISA on BSA-SEMG2 (497-509), antibody titrated
SEMG2(563-574) fragment = target: T18, SEMG2(563-574) fragment (human); experiment: ELISA, immobilized antigen SEMG2 (563-574)
T18 peptide: VAQDDHLTQQYN
Text: as §2

QIEKLVEAKSQIQ = target: T19, QIEKLVEAKSQIQ; experiment: ELISA, immobilized peptide QIEKLVEAKSQIQ
T19 construct: member of the group m41; position 504 is glycine in SEMG2 and the sheet prints alanine there
T19 peptide: QIEKLVEAKSQIQ
Text: as §1

[9] = target: T7, SEMG2(497-509) polypeptide QIEKLVEGKSQIQ; experiment: ELISA, immobilized peptide QIEKLVEGKSQIQ
Text: as §1

[10] = target: T1, human SEMG2 full-length protein; experiment: ELISA on SEMG2 protein; the EC50 table prints no unit, the axis is log (antibody concentration, nM)
[11] = target: T1, human SEMG2 full-length protein; experiment: ELISA on SEMG2; the EC50 table prints no unit, the axis is log (antibody concentration, nM); remark: listed apart in the source
[12] = target: T2, BSA-conjugated human SEMG2 (497-509) …; experiment: ELISA (FIG. 21B-D)
[13] = target: T1, human SEMG2 full-length protein; experiment: ELISA (FIG. 21B-D)

B1: H88-67 (antibody, V domains shown)
VH: QVQLLESGGGVVQPGRSLRLSCAASGFTFSSYAMHWVRQAPGKGLEWVAVISYDGSNKYYADSVKGRFTISRDNSKNTLYLQMNSLRAEDTAVYYCARMDGSGSPDYWGQGTLVTVSS
VL: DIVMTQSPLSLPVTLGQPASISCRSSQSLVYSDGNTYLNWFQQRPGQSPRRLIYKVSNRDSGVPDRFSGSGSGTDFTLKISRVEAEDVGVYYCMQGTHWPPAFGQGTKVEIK
notes: Fully human full-length antibody built from a phage Fab
Q: For B1, which EC50 [1] is on record?
A: 2.13 nM

Q: What about the EC50 [2] of the same binder?
A: 57.5 nM

Q: And the Kd [3]?
A: 28.4 nM

Q: And the EC50 [4]?
A: 0.863 nM

B2: MM02 (antibody, IgG2b, V domains shown)
VH: QIQLVQSGPEVKKPGETVRISCKASGYTLTTAGIQWVQKMPGKGLKWIGWINTHSGVPEYAEDFKGRFAFFLETSASTAYLQISNLKNEDTATYFCARLGLLGYWGQGTTLTVSS
VL: DILLTQSPAILSVSPGERVSFSCRASQSIGTTIHWYQQRTNGSPRLLIKYASESISGIPSRFSGSGSGTDFTLSINSVESEDIADYYCQQSNSWPWTFGGGTKLEIKR
Q: What does the source list for B2?
A: OD450 absorbance (QIEKAVEGKSQIQ): 0.051; OD450 absorbance (QIEKLVEGKAQIQ): 0.173; OD450 absorbance (QIAKLVEGKSQIQ): 0.788; OD450 absorbance (QIEKLVEGKSQAQ): 0.894; A450 absorbance [5]: 1.18; OD450 absorbance (QIEKLAEGKSQIQ): 0.928; A450 absorbance (SEMG2(354-403) fragment): 0.004; binding result (SEMG2(354-403) fragment): no binding; OD450 absorbance (QIEKLVEGKSQIA): 1.15; OD450 absorbance (QIEALVEGKSQIQ): 0.47; Kd [3]: 1.33 nM; EC50 [6]: 0.176 nM; OD450 absorbance (QIEKLVEGASQIQ): 0.949; A450 absorbance (SEMG2(442-453) fragment): 0.001; binding result (SEMG2(442-453) fragment): no binding; A450 absorbance [7]: 1.2; OD450 absorbance (AIEKLVEGKSQIQ): 0.45; OD450 absorbance (QIEKLVEGKSAIQ): 1.26; OD450 absorbance (QIEKLVAGKSQIQ): 0.48; OD450 absorbance (QAEKLVEGKSQIQ): 0.541; EC50 (read off the curve) [8]: ~4 ng/mL; A450 absorbance (SEMG2(563-574) fragment): 0.005; binding result (SEMG2(563-574) fragment): no binding; OD450 absorbance (QIEKLVEAKSQIQ): 0.766; OD450 absorbance [9]: 1.26

B3: MM05V4V2 (antibody, V domains shown)
VH: QVQLVQSGAEVKKPGASVKVSCKASGYTFTSYWMNWVRQAPGQGLEWVGMIDPSDSETHYAQKFQGRVTITADKSTSTVYMELSSLRSEDTAVYYCARYLGGKEGSFDYWGQGTLVTVSS
VL: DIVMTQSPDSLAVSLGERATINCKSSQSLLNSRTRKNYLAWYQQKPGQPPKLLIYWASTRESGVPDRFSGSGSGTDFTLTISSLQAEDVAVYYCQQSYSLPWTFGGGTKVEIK
notes: humanized MM05 antibody, one member of the group m49
Q: Which EC50 [10] does the source give for B3 here?
A: 0.18 nM

B4: MM05V4V1 (antibody, V domains shown)
VH: QVQLVQSGAEVKKPGASVKVSCKASGYTFTSYWMNWVRQAPGQGLEWVGMIDPSDSETHYAQKFQGRVTITADKSTSTVYMELSSLRSEDTAVYYCARYLGGKEGSFDYWGQGTLVTVSS
VL: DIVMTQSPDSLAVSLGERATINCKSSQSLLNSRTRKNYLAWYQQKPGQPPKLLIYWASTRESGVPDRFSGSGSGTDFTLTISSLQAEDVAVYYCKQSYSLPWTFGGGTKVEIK
notes: as for B3
Q: How did the EC50 [10] turn out when B4 was run?
A: 0.123 nM

B5: MM05V3V2 (antibody, V domains shown)
VH: QVQLVQSGAEVKKPGASVKVSCKASGYTFTSYWMNWVRQAPGQGLEWVGMIDPSDSETHYAQKFQGRVTITVDKSTSTVYMELSSLRSEDTAVYYCARYLGGKEGSFDYWGQGTLVTVSS
VL: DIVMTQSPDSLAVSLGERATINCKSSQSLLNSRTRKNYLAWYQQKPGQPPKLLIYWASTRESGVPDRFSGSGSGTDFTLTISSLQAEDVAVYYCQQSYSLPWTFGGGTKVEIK
notes: as for B3
Q: For B5, which EC50 [10] is on record?
A: 0.092 nM

B6: 96-10V-10 (antibody, V domains shown)
VH: QVQLLESGGGLVQPGGSLRLSCSASGFTFSSYAMHWVRQAPGKGLEYVSAISSNGGSTYYADSVKGRFTISRDNSKNTLYLQMSSLRAEDTAVYYCVIEGGSTGSTVSGAFDIWGQGTMVTVSS
VL: DIQMIQSPPSVSASVGDTVTIACRANQGIDSWLAWYQQKPGRAPKLLIYSASRLQSGVPSRFSGGGSGTDFALTISNLQPEDFATYYCQQALSLPITFGQGTRLEIK
Q: How did the EC50 [11] turn out when B6 was run?
A: 0.358 nM

Q: And the EC50 [2]?
A: 32.2 nM

Q: And the “fold higher affinity than the parent antibody (H88-96)” value [12]?
A: > 10 fold

Q: What about the “fold higher affinity than the parent antibody (H88-96)” value [13] of the same binder?
A: > 10 fold

B7: H88-96 (antibody, V domains shown)
VH: QVQLLESGGGLVQPGGSLRLSCSASGFTFSSYAMHWVRQAPGKGLEYVSAISSNGGSTYYADSVKGRFTISRDNSKNTLYLQMSSLRAEDTAVYYCVIEGGSTTGTTSGAFDIWGQGTMVTVSS
VL: DIQMIQSPPSVSASVGDTVTIACRANQGIDSWLAWYQQKPGRAPKLLIYSASRLQSGVPSRFSGGGSGTDFALTISNLQPEDFATYYCQQALSLPITFGQGTRLEIK
notes: as for B1
Q: With B7 as the binder, how does the EC50 [11] read?
A: 14 nM

Q: And the EC50 [2]?
A: 95.7 nM

Q: And the Kd [3]?
A: 14 nM

Q: And the EC50 [4]?
A: 9.3 nM
